Measured values from patent US20230235040A1 (ALMIRALL S A, published 2023).
Changes are numbered by the printed parent chain.

Assays:
[1] = target: T1, cy-IL-36γ (cynomolgus monkey IL-36γ, S18-K168) (cynomolgus monkey, UniProt Q9NZH8 18-167 (human entry)); experiment: ELISA on coated cy- and hu-IL-36γ, yeast Fab supernatant; ratio of OD450
T1 construct: Purification tag cleaved off
T1 chain: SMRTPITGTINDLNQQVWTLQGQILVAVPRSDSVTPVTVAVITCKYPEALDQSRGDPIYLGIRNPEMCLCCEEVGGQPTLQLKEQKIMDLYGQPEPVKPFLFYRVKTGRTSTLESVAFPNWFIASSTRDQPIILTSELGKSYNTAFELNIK
Description: (§1) Cell supernatants from yeast clones of interest were tested for binding to human IL-36 by ELISA as described above. To compare the binding of these supernatants to human and cynomolgus monkey IL-36, IL-36 proteins were coated at 2.5 μg/mL on 96-well Nunc MaxiSorp plates (Thermo Fisher) and the plates blocked with 5% goat serum in PBS. Yeast supernatants were diluted 1:1 with PBST containing 1% w/v BSA and added to the ELISA plates for 1-1.5 hours with agitation. Bound Fab was detected by incubating the plates with F(ab′)2-HRP (Jackson ImmunoResearch). The ELISAs were developed for 3-10 minutes by addition of 50 μL/well of tetramethylbenzidine (TMB) microwell peroxidase substrate (Scytek Laboratories, Inc., Logan, Utah, USA) and enzymatic color development was stopped by acidification with 50 µL/well of 2 N H₂SO₄ (Sigma-Aldrich Corporation, St. Louis, Mo., USA). The optical density of the samples at a wavelength of 450 nm (OD450) was analyzed with a SpectraMax i3X plate reader (Molecular Devices LLC, San Jose, Calif., USA). To estimate the relative affinity of each clone for cynomolgus monkey IL-36 and human IL-36 in this assay, a ratio of OD450 (OD450_cyIL-36/OD450_huIL-36) was calculated for each clone and IL-36 cytokine.

[2] = target: T2, hu-IL-36α (human IL-36α, N-terminally truncated active form K6-F158) (human, UniProt Q9UHA7 6-158); experiment: cell-based or functional assay
T2 sequence: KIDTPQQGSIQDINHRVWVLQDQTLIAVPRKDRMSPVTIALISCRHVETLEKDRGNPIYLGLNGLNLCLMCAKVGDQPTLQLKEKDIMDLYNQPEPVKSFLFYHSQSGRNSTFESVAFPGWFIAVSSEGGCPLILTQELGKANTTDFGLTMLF

[3] = target: T3, hu-IL-36γ (human IL-36γ, N-terminally truncated active form S18-D169) (human, UniProt Q9NZH8 18-169); experiment: cell-based or functional assay
T3 sequence: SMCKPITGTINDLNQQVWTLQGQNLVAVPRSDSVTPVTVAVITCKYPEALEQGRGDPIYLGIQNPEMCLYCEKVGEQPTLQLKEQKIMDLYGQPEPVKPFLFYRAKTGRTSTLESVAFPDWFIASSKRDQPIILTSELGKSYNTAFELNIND

[4] = target: T2, hu-IL-36α (human IL-36α, N-terminally …); experiment: ELISA, yeast Fab supernatant, anti-Fab-HRP
[5] = target: T3, hu-IL-36γ (human IL-36γ, N-terminally …); experiment: ELISA, yeast Fab supernatant, anti-Fab-HRP
[6] = target: T4, cy-IL-36α (cynomolgus monkey IL-36α, K6-F158) (cynomolgus monkey, UniProt Q9UHA7 14-158 (human entry)); experiment: ELISA on coated cy- and hu-IL-36α, yeast Fab supernatant; ratio of OD450
T4 construct: Purification tag cleaved off
T4 chain: T2 sequence with I2S, D3E, T4M, Q7P, G8V, T24I, M34V, A40S, V74A
Description: as §1

[7] = target: T2, hu-IL-36α (human IL-36α, N-terminally …); experiment: cell-based or functional assay; remark: listed apart in the source
[8] = target: T3, hu-IL-36γ (human IL-36γ, N-terminally …); experiment: cell-based or functional assay; remark: listed apart in the source
[9] = target: T2, hu-IL-36α (human IL-36α, N-terminally …); experiment: phage competition ELISA: Fab on phage, soluble hu-IL-36α titrated against coated hu-IL-36α
Description: (§2) Selected phages with top binding signal were purified to perform phage competition ELISA. The optimal phage concentration was incubated with serially-diluted human IL-36α or human IL-36γ in ELISA buffer in NUNC F plate for two hours. 80 μL of the mixture was transferred to human IL-36α or human IL-36γ coated wells for 15 min to capture unbound phage. The plate was washed with wash buffer (0.05% TWEEN®20 in PBS), and HRP-conjugated anti-M13 antibody (Sino biological, Cat #11973-MM05-H-50) was added in ELISA buffer for 30 min. The plates were washed and developed as described above. The absorbance at 450 nm was plotted as a function of antigen concentration in solution to determine phage IC50.

[10] = target: T3, hu-IL-36γ (human IL-36γ, N-terminally …); experiment: phage competition ELISA: Fab on phage, soluble hu-IL-36γ titrated against coated hu-IL-36γ
Description: as §2

B1: mAb1.0 Fab (yeast clone culture supernatant) (Fab, V domains shown)
VH: QVQLVESGGGVVQPGRSLRLSCAASGFSFSAYAMHWVRQAPGKGLEWVAVISYDGTNEYYADSVKGRFTISRDNSKNTLYLQMNSLRAEDTAVYYCARGIRIFTSYFDSWGQGTLVTVSS
VL: QSVLTQPPSVSGAPGQRVTISCTGSSSNIGAHYDVHWYQQLPGTAPKLLIYSNNNRPSGVPDRFSGSKSGTSASLAITGLQAEDEADYYCQSYDYSLRGYVFGGGTKLTVL
notes: Human Fab secreted by the yeast clone, not purified
In the case of B1, the “ELISA OD450cyIL-36/OD450hu-IL-36” value [1] is reported as 1.3 ratio, the “% Inhibition, HEK-Blue IL-36R SEAP reporter assay” value (from here on “% Inhibition”) [2] is reported as 70% and the “% Inhibition” value [3] is reported as 31%. The “ELISA OD450” value [4] was 0.94 OD450, the “ELISA OD450” value [5] was 2.43 OD450 and the “ELISA OD450cyIL-36/OD450hu-IL-36” value [6] was 0.6 ratio.

B2: mAb3.0 Fab (yeast clone culture supernatant) (Fab, V domains shown)
VH: QLQLQESGPGLVKPSETLSLTCTVSGGSISSTSYYWGWIRQPPGKGLEWIGSIHYSGNTYYNPSLKSRVTISVDTSKNQFSLKLSSVTAADTAVYYCARVHYGGYIPRRFDHWGQGTLVTVSS
VL: B1 VL with H32G, S52G, N54T
notes: as for B1
With B2 the “ELISA OD450cyIL-36/OD450hu-IL-36” value [1] was 1 ratio, the “% Inhibition” value [2] was 40% and the “% Inhibition” value [3] was 64%. The “ELISA OD450” value [4] was 1.63 OD450, the “ELISA OD450” value [5] was 2.11 OD450 and the “ELISA OD450cyIL-36/OD450hu-IL-36” value [6] was 0.5 ratio.

B3: mAb5.0 Fab (yeast clone culture supernatant) (Fab, V domains shown)
VH: EVQLLESGGGLVQPGGSLRLSCAASGFTFSTYAMSWVRQAPGKGLEWVSGISGGSGYTYYADSVKGRFTISRDNSKNTLYLQMNSLRAEDTAVYYCARVVTYRDPPASFDYWGQGTLVTVSS
VL: B1 VL with S52G, N54D, R98K, G99A
notes: as for B1
B3 was tested, and the “ELISA OD450cyIL-36/OD450hu-IL-36” value [1] was 1 ratio, the “% Inhibition” value [2] was 75% and the “% Inhibition” value [3] was 75%. For the same binder, the “ELISA OD450” value [4] was 2.05 OD450, the “ELISA OD450” value [5] was 2.08 OD450 and the “ELISA OD450cyIL-36/OD450hu-IL-36” value [6] was 0.5 ratio.

B4: mAb4.0 recombinant human IgG1 (antibody, V domains shown)
VH: QLQLQESGPGLVKPSETLSLTCTVSGGSIGSRSYYWGWIRQPPGKGLEWIGSIHYSGTTYYNPSLKSRVTISVDTSKNQFSLKLSSVTAADTAVYYCARVAPSYPRVFDYWGQGTLVTVSS
VL: B1 VL with H32G, S52G, N54R, G99V
With B4 the “IC50, HEK-Blue IL-36R SEAP reporter assay” value [7] was 16 nM and the “IC50, HEK-Blue IL-36R SEAP reporter assay” value [8] was 52 nM.

B5: mAb1.0 recombinant human IgG1 (antibody, V domains shown)
VH: B1 VH
VL: B1 VL
B5 was tested, and the “IC50, HEK-Blue IL-36R SEAP reporter assay” value [7] was 43 nM and the “IC50, HEK-Blue IL-36R SEAP reporter assay” value [8] was 5.3 nM.

B6: mAb5.0 recombinant human IgG1 (antibody, V domains shown)
VH: B3 VH
VL: B1 VL with S52G, N54D, R98K, G99A
For B6, the “IC50, HEK-Blue IL-36R SEAP reporter assay” value [7] was 95 nM and the “IC50, HEK-Blue IL-36R SEAP reporter assay” value [8] was 142 nM.

B7: mAb3.0 recombinant human IgG1 (antibody, V domains shown)
VH: B2 VH
VL: B1 VL with H32G, S52G, N54T
For B7, the “IC50, HEK-Blue IL-36R SEAP reporter assay” value [7] was 90 nM and the “IC50, HEK-Blue IL-36R SEAP reporter assay” value [8] was 30 nM.

B8: mAb2.3 Fab (phage-displayed) (Fab, V domains shown)
VH: ELQLQESGPGLVKPSETLSLTCTVSGGSISTSSDYWGWIRQPPGKGLEWIGSIYYTGNTYYLPSLKSRVTISVDTSKNQFSLKLSSVTAADTAVYYCSRVRYGVGVPRYFDPWGQGTLVTVSS
VL: B1 VL with Q1E, S52G, N54D, R98S
B8 was tested, and the IC50 [9] was 0.82 nM and the IC50 [10] was 2.39 nM.

B9: mAb2.2 Fab (phage-displayed) (Fab, V domains shown)
VH: B8 VH with T31E, D34Y, L62N, S98A, R99G
VL: B1 VL with Q1E, S52G, N54D, R98S
For B9, the IC50 [9] was 0.75 nM and the IC50 [10] was 3.79 nM.

B10: mAb2.6 Fab (phage-displayed) (Fab, V domains shown)
VH: B8 VH with D34Y, Y35H, L62M, S98V
VL: B1 VL with Q1E, S52G, N54D, R98S
With B10 the IC50 [9] was 1.62 nM and the IC50 [10] was 1.99 nM.

B11: mAb2.0 Fab (yeast clone culture supernatant) (Fab, V domains shown)
VH: B8 VH with E1Q, D34Y, L62N, S98A
VL: B1 VL with S52G, N54D, R98S
notes: as for B1
For B11, the “ELISA OD450cyIL-36/OD450hu-IL-36” value [1] was 1.2 ratio, the “% Inhibition” value [2] was 91% and the “% Inhibition” value [3] was 89%. The “ELISA OD450” value [4] was 2.53 OD450, the “ELISA OD450” value [5] was 2.5 OD450 and the “ELISA OD450cyIL-36/OD450hu-IL-36” value [6] was 0.7 ratio.

B12: mAb2.5 Fab (phage-displayed) (Fab, V domains shown)
VH: B8 VH with T31E, D34Y, S98A
VL: B1 VL with Q1E, S52G, N54D, R98S
With B12 the IC50 [9] was 0.77 nM and the IC50 [10] was 1.88 nM.

B13: mAb2.4 Fab (phage-displayed) (Fab, V domains shown)
VH: B8 VH with T31N, D34Y, S98A
VL: B1 VL with Q1E, S52G, N54D, R98S
B13 showed an IC50 [9] of 0.68 nM and an IC50 [10] of 1.52 nM.

B14: mAb2.7 Fab (phage-displayed) (Fab, V domains shown)
VH: B8 VH with T31R, D34Y, L62W, S98T
VL: B1 VL with Q1E, S52G, N54D, R98S
In the case of B14, the IC50 [9] is reported as 1.2 nM and the IC50 [10] is reported as 1.53 nM.
